T1: GdFen1 (Giardia duodenalis, UniProt A8B672 1-361)
T1 sequence: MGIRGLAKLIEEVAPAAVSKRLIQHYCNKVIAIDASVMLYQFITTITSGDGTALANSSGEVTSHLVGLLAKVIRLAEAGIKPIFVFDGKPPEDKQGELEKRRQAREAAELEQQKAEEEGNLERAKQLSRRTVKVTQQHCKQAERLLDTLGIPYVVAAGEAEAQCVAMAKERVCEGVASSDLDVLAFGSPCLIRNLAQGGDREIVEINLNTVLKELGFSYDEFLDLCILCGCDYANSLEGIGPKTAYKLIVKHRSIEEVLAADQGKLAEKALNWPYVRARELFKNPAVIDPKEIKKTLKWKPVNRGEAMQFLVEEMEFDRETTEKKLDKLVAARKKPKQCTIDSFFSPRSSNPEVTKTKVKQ

B1: Flap probe (structured_DNA)
DNA 1: CGCGGATCCCACTACGCCGATTTTTTTTTTTTTTTTTTTTACGTATGCCACGAATTCGCG
DNA 2: CGCGAATTCGTGGCATACGTAAAAAAAAAAAAAAAAAAAAGAGATGCGAGTCTAGACCGG
DNA 3: CCGGTCTAGACTCGCATCTC
B2: Bubble probe (structured_DNA)
DNA 1: B1 DNA 1
DNA 2: CGCGAATTCGTGGCATACGTTTTTTTTTTTTTTTTTTTTTTCGGCGTAGTGGGATCCGCG

Target: T1, GdFen1
Experiment: EMSA

Row | Binder | binding result
1 | B1 | binds
2 | B2 | binds

Source: publication doi:10.1101/2025.04.23.650334
